According to US20130171153A1 (TRANSBIO, published 2013):
One block for each binder: values may come before it.

Columns and labels:
[1] = target: T1, Abnova recombinant PI16 protein (expressed using a wheat germ cell free system) (UniProt Q6UXB8 1-463, limits assumed); assay: slot blot
T1 construct: Bought product; also called Rec. protein Abnova; Abnova recombinant protein
T1 sequence (looked up): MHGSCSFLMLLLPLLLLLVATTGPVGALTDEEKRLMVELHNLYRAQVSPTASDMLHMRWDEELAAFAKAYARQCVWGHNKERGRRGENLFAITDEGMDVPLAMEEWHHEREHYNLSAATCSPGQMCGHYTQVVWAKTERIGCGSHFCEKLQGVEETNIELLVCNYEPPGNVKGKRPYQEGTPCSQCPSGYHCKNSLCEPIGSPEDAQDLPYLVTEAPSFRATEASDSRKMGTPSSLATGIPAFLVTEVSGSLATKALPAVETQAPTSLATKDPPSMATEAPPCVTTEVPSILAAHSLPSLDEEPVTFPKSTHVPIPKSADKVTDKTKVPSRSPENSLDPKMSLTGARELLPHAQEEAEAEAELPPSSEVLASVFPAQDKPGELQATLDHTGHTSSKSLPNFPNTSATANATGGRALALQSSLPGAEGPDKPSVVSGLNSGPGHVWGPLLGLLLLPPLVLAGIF
Procedure: 100 μl of samples (as indicated) were loaded into each slot onto nitrocellulose membrane (Protran; Schleicher & Schuell) under vacuum. After loading, the blot was blocked for 1 hour at RT with 3% skim milk powder (Diploma) in PBS Tween 0.05% (block buffer). The primary Ab (secreted by CRCBT-02-001 or the polyclonal PI16 antibody from Abnova) was diluted in block buffer one in two and incubated on a platform rocker for 1 hour at RT. The blot was washed 3×5 minutes with PBS tween. Biotinylated horse anti mouse (Vector) 1/1000 diluted in block buffer was added and incubated for one hour at RT on rocking platform. The blot was washed 3×5 minutes with PBS tween. A dilution of 1/1000 SA:HRP (GE Healthcare) in block buffer was added and incubated for one hour at RT on rocking platform. The blot was washed 3×5 minutes with PBS tween. An appropriate volume of ECL solutions A and B (enough to cover membrane surface; ECL Advance Western Blotting Kit, GE Healthcare) was added and incubated for one minute with constant shaking. The blot was read immediately in a G:Box (Syngene) upon 15 seconds UV-exposure.
To determine the protein to which the monoclonal antibody binds, slot blots were performed.

[2] = target: T2, PI16-Fc (extracellular domain of human PI16, aa 28-443, tev-protease cleavage site, C-terminal human Fc) (human, UniProt P01857-1 104-330 = IgG part); assay: SPR (ProteOn XPR36), mAb captured by anti-mouse IgG on GLM chip, PI16-Fc as analyte, Langmuir global fit
T2 construct: domain: Fc; also called recombinant PI16-Fc; native PI16-Fc; not shown: tev-protease cleavage site
T2 sequence (P01857 other isoform, or with tags, fused parts or gaps): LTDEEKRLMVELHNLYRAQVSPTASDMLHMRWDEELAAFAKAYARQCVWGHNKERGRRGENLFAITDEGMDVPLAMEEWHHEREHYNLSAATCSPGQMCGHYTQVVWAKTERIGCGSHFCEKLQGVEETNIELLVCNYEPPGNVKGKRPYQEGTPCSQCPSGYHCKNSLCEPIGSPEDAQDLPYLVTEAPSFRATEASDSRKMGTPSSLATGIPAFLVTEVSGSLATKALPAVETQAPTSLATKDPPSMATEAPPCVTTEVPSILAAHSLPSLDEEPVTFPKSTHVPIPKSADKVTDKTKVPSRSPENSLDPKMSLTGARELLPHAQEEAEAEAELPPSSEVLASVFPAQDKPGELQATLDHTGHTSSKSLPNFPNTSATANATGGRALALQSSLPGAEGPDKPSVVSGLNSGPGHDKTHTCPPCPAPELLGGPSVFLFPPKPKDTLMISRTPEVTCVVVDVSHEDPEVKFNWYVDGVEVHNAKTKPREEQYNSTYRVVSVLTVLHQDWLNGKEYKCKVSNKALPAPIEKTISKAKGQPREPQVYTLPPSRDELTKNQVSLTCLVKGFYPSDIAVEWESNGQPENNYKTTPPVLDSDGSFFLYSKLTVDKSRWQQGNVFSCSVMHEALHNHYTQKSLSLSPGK
Procedure: A proteOn sensor chip (GLM) was activated by flowing a mixture of 0.2 M EDC and 0.05 M sulpho-NHS over the chip ([…] at 30 μL/min for 5 minutes). Rabbit anti-mouse IgG whole molecule (Sigma M-7023) was then coupled to the chip in the vertical orientation by flowing 150 μL of a 50 μg/mL solution in 10 mM acetate buffer (pH 4.5) at 30 μL/min. The remaining coupling sites were then deactivated by flowing 150 μL of 1 M ethanolamine-HCl (pH 8.5) at 30 μL/min. Mouse monoclonal anti PI16 IgG was then allowed to flow over and be captured by the coupled anti-mouse IgG antibody by flowing 150 μL of 100 μg/mL IgG at 25 μL/min over a single channel of the sensor chip in the horizontal direction. […] PBS Tween 20 (0.005%) alone was passed over the remaining channel and served as a reference. Binding sensorgrams were collected and analysed with the ProteOn Manager 2.1×PR36 software using the Langmuir kinetic model to fit the data and determine the affinity constant (KD).
The published method (Nahshol et al., 2008) was used to measure the kinetics of the PI16 mab by anti-mouse capture. This is a relatively mild method coupling method and the association and dissociation curves and affinity measurement was performed with 4 dilutions of the PI16-Fc (FIG. 43 and Table 9). The data fitted well to a Langmuir kinetic model using global fit (all the curves fitted simultaneously).

[3] = target: T3, fragment of PI16 expressed by phage clone 7 (round 3) (human); assay: phage ELISA of PI16 gene fragment clones
T3 construct: also called R3 7
T3 chain: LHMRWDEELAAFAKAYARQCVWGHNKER

[4] = target: T4, fragment of PI16 expressed by phage clone 4 (round 3) (human); assay: phage ELISA of PI16 gene fragment clones
T4 construct: also called R3 4
T4 chain: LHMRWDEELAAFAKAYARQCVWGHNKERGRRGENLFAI

[5] = target: T5, fragment of PI16 expressed by phage clone 10 (round 3) (human); assay: phage ELISA of PI16 gene fragment clones
T5 construct: also called R3 10
T5 chain: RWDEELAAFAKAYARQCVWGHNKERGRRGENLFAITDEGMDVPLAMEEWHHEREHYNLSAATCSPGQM

[6] = target: T6, fragment of PI16 expressed by phage clone 12 (round 3) (human); assay: phage ELISA of PI16 gene fragment clones
T6 construct: also called R3 12
T6 chain: LHMRWDEELAAFAKAYARQ

[7] = target: T7, fragment of PI16 expressed by phage clone 15 (round 3) (human); assay: phage ELISA of PI16 gene fragment clones
T7 construct: also called R3 15
T7 chain: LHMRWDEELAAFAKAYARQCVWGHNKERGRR

mouse PI16 = target: T8, mouse PI16 (mouse, UniProt Q9ET66 30-498, limits assumed); assay: not described
T8 construct: also called Mus musculus PI16
T8 sequence: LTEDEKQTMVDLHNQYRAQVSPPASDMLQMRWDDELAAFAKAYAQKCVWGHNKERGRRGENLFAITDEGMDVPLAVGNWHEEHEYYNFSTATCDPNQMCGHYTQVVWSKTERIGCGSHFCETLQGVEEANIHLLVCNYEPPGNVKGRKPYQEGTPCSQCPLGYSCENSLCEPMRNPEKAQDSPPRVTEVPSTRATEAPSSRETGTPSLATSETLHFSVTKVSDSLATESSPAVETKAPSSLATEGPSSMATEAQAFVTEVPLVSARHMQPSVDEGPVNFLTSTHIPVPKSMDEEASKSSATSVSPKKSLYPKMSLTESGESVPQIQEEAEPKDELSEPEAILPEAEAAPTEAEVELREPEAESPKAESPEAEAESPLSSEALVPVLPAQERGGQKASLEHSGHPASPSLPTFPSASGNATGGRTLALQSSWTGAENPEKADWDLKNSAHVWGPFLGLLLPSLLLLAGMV

[8] = target: T2, PI16-Fc (extracellular domain of human …); assay: SPR (ProteOn XPR36), PI16-Fc amine-coupled to GLC chip, Fab as analyte, Langmuir global fit
Procedure: A ProteOn sensor chip (GLC) was activated by flowing a mixture of 0.2 M N-ethyl-N′-(3-dimethylaminopropyl) carbodiimide (EDC) and 0.05 M sulfo-N-hydroxysuccinimide (sulfo-NHS) over the chip (150 μL at 30 μL/min for 5 minutes). Recombinant PI16-Fc was coupled to the chip in the vertical orientation by flowing 150 μL of a 50 μg/mL solution in 10 mM acetate buffer (pH 4.5) at 30 μL/min. The remaining activated carboxyl group were then deactivated by flowing 150 μL of 1 M ethanolamine-HCl (pH 8.5) at 30 μL/min. […] PBS Tween 20 (0.005%) alone was passed over the remaining channel. Binding sensorgrams were collected and analysed with the ProteOn Manager 2.1×PR36 software using the Langmuir kinetic model to fit the data and determine the affinity constant (KD).
This coupling method was performed using various pHs to optimise the coupling of PI16-Fc to the GLC chip. The optimal coupling pH was 4.5. The association and dissociation curves and affinity measurement was performed with 3 dilutions of the PI16 Fab shown in FIG. 42 and Table 8. The data fitted well to a Langmuir kinetic model using global fit (all the curves fitted simultaneously).

binding result [1]: no binding
Kd [2]: 2.56 nM
koff [2]: 0.000149 s⁻¹
kon [2]: 58200 M⁻¹ s⁻¹
binding result [3]: binds
binding result [4]: binds
binding result [5]: binds
binding result [6]: binds
binding result [7]: binds
binding result (mouse PI16): no binding
B1: antibody produced by the hybridoma designated CRCBT-02-001 (ATCC PTA-10685) (antibody, V domains shown)
VH: FGGGLVQPGGSMKLSCVASGFTFSYYWMNWVRQSPEQGLEWIAEIRLQSNDYPTHYAESVKGRFTISRDDSKNSVYLQMNNLRPEDTGIYYCACRYADYFDHWGQGTTLTVSS
VL: VMTQSPAILSVYPGEKVTMTCRASLSVSYMHWCQQKPGSSPKSWIYATSNLASGVPARFSGSGSGTSYSLTISRVEAEDAATYYCQQWSSNPFTFGSGTKLEIKR
notes: constant regions are not; Used as hybridoma supernatant or as Protein G purified antibody; also called CRCBT-002-001; P1G5-P2B3

Kd [8]: 1.25 nM
koff [8]: 0.000372 s⁻¹
kon [8]: 297000 M⁻¹ s⁻¹
B2: CRCBT-02-001 Fab (Fab, V domains shown)
VH: B1 VH
VL: B1 VL
notes: also called PI16 Fab; Anti-PI16 Fab fragment
